Target: T1, Flag-tagged FANCJ wild type (human, UniProt Q9BX63 1-1249)
T1 construct: FANCJ (BRIP1, BACH1) DNA helicase, human, open reading frame; purified as full-length protein; Plasmid from Hisao Masai (Uno et al, 2012); also called FANCJ WT; Flag-FANCJ WT; source: HEK 293T, transiently transfected (pCSII-EF-MCS): in whole-cell extract or nuclear fraction; also purified (anti-Flag M2 agarose, 3x Flag-peptide elution)
T1 sequence (looked up): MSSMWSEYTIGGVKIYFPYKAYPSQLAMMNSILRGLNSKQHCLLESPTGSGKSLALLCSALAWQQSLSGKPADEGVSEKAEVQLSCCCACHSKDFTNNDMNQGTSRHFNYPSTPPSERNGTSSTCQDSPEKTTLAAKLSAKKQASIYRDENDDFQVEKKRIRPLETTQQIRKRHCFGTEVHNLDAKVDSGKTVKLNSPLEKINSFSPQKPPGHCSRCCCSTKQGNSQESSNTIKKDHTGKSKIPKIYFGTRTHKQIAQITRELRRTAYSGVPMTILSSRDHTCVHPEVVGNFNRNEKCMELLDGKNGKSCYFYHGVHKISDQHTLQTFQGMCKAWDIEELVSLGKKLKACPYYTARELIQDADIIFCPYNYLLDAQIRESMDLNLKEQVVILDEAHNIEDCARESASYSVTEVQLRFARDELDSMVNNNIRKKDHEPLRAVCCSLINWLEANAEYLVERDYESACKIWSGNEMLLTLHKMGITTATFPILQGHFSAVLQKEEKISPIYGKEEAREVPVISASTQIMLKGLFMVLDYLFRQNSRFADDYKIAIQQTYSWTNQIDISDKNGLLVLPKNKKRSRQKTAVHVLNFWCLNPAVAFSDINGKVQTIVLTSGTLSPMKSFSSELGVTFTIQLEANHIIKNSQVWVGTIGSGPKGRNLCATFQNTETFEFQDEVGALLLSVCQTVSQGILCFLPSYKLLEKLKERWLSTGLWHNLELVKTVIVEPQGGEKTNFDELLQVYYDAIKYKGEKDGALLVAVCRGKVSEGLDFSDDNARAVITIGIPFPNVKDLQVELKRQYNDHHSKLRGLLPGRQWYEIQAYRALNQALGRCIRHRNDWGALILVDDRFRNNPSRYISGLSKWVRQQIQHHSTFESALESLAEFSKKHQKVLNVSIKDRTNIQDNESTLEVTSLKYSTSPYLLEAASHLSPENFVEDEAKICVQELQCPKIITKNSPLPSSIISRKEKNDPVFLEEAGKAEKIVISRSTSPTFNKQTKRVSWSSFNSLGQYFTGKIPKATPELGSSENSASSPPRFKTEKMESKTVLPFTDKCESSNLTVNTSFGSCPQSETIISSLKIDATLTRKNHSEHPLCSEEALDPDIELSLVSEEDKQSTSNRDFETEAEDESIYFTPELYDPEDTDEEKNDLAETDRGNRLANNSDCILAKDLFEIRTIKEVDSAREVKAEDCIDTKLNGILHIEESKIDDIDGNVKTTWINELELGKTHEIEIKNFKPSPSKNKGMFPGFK
Assay: pull-down; GST-SepB α-helix bundle (0.5 µg) on Glutathione Sepharose 4B beads, purified Flag-FANCJ (0.5 µg) added; 25 mM Tris-HCl pH 7.5, 150 mM NaCl, 0.1% Triton X-100, 4 °C; washes with 300 mM NaCl, 1% Triton X-100; Western blot
Conditions: both partners purified

- binding result: binds
B1: GST-SepB α-helix bundle WT (domain or fragment, human, UniProt O75717 718-824, looked up)
chain: IATEKGQMEEQFWRSVIFHNHLDYLAKNGYEYEESTKNQATKEQQELLMKMLALSCKLEREFRCVELADLMTQNAVNLAIKYASRSRKLILAQKLSELAVEKAAELT
notes: AND-1 (WDHD1), human, α-helix bundle of the SepB domain, amino-acid residues 718-824; Cloned into pGEX-2T; also called GST-SepB α-helix bundle chimeric protein; source: E. coli Rosetta pLysS (DE3), purified (Glutathione Sepharose 4B)
